Reference: publication PMC6856373, “The first comprehensive phylogenetic and biochemical analysis of NADH diphosphatases reveals that the enzyme from Tuber melanosporum is highly active towards NAD^+” (Scientific Reports, 2019)

What was measured:
[1] = substrate: NC(=O)C1=CN([C@@H]2O[C@H](COP(=O)(O)OP(=O)(O)OC[C@H]3O[C@@H](n4cnc5c(N)ncnc54)[C@H](O)[C@@H]3O)[C@@H](O)[C@H]2O)C=CC1; experiment: HPLC of AMP formation, initial rates, Michaelis-Menten fit; assay type: biochemical, Tuber melanosporum; conditions: 50 mM Tris-HCl pH 8.0, 37 °C, 0.5 mM MnCl2
Text: (§1) HPLC of AMP formation, initial rates, Michaelis-Menten fit on […]

[2] = substrate: NC(=O)c1ccc[n+]([C@@H]2O[C@H](COP(=O)(O)OP(=O)(O)OC[C@H]3O[C@@H](n4cnc5c(N)ncnc54)[C@H](O)[C@@H]3O)[C@@H](O)[C@H]2O)c1; experiment: as above; assay type: biochemical, Tuber melanosporum; conditions: 50 mM Tris-HCl pH 8.0, 37 °C, 0.5 mM MnCl2
Text: as §1

B1: TmNADD (Tuber melanosporum Mel28) (protein)
chain: MTQPYTATTESHKTSMLSRKFGQEIINYFSGSPLNRVSFLRSSTAFLRAALPRSKFLLMRDLEPLAASKTTLAWVGYETVRELVGNPFDTEEEEFLRGYDSRVEIPTLVFLGMNEEGTGGGGGGESFEFEGEGGKYVGGPCFALDVTEKGSLKEECEKVQEEAVKGAEGREFRKVRLDLSLVPSDAAILAQARSLLDWNNRNQFCSACGARTVSVHAGTKRICPPSDKAFQKDPEGPPFERPPCISRKGIHNIAFPRTDPTVIMAIINSTGDKVLLGRQRRWPKDFYSTLAGFCEPAESVEDAVRRETWEESGVRVGRVVIHSTQPWPYPANLMMGAIGEALPGGEEIVLKHDPELEDAQWVEVGRVRNALQESTGTPDVEVEGAIEGQLRLPPSTAIAHQLLLAVVNGFHLAKL
Km [1]: 120 ± 10 µM
kcat [1]: 10.7 ± 1.8 s⁻¹
kcat/Km [1]: 89200 ± 19800 M⁻¹ s⁻¹
Km [2]: 310 ± 50 µM
kcat [2]: 2.9 ± 0.2 s⁻¹
kcat/Km [2]: 9300 ± 1600 M⁻¹ s⁻¹
